Measurements reported in publication PMC5386136.

How the values were obtained:
[1] = biological target: SHANK3 SPN(R12C)-ARR mutant (rat); assay: ITC
[2] = biological target: SHANK3 SPN-ARR (residues 1-348) (rat); assay: ITC

Substance: Rap1b (residues 1-166) (from UniProt P61224 1-166) (natural protein)
- Kd [1]: 2.2 µM
- Kd [2]: 0.2 µM
